# Results published in article PMC2756588.
# Target: T1, Abp1, P15891
# T1 sequence (P15891 535-592, looked up): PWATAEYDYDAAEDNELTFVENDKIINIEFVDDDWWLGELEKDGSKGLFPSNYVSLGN
# Assay: SPOT array
# Details: median of control spots 935
row,Binder,SPOT intensity
1,PSPSSSPPPIPKTAN,0
2,VPPVPLPFGIPPFPM,25
3,LPPPPPPPPPPPLPQ,0

# Target: T2, Bbc1, P47068
# T2 sequence (P47068 1-78, looked up): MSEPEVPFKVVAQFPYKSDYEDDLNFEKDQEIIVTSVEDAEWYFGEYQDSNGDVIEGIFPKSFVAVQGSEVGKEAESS
# Assay: SPOT array
# Details: median of control spots 796
row,Binder,SPOT intensity
1,PSPSSSPPPIPKTAN,0
2,VPPVPLPFGIPPFPM,3
3,LPPPPPPPPPPPLPQ,0

# Target: Bem1-1, P29366
# Assay: SPOT array
# Details: median of control spots 4282
# Chain of Bem1-1, P29366 (P29366 55-141): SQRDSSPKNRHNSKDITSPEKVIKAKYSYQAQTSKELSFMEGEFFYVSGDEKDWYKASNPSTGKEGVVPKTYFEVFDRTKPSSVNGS
row,Binder,SPOT intensity
1,PSPSSSPPPIPKTAN,1
2,VPPVPLPFGIPPFPM,0
3,LPPPPPPPPPPPLPQ,0

# Target: Bem1-2, P29366
# Assay: SPOT array
# Details: median of control spots 4347
# Chain of Bem1-2, P29366 (P29366 139-227): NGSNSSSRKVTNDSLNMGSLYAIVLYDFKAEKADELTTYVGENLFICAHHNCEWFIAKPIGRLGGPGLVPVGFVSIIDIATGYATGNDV
row,Binder,SPOT intensity
1,PSPSSSPPPIPKTAN,0
2,VPPVPLPFGIPPFPM,2
3,LPPPPPPPPPPPLPQ,6

# Target: T3, Boi1, P38041
# T3 sequence (P38041 1-86, looked up): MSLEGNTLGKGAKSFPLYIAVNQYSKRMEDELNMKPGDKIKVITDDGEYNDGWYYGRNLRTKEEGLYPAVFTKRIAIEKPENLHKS
# Assay: SPOT array
# Details: median of control spots 1162
row,Binder,SPOT intensity
1,PSPSSSPPPIPKTAN,1
2,VPPVPLPFGIPPFPM,0
3,LPPPPPPPPPPPLPQ,1

# Target: T4, Boi2, P39969
# T4 sequence (P39969 32-116, looked up): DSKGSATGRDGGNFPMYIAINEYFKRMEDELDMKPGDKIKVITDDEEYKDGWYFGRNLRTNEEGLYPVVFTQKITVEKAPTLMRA
# Assay: SPOT array
# Details: median of control spots 1161
row,Binder,SPOT intensity
1,PSPSSSPPPIPKTAN,1
2,VPPVPLPFGIPPFPM,1
3,LPPPPPPPPPPPLPQ,0

# Target: T5, Bud14, P27637
# T5 sequence (P27637 247-328, looked up): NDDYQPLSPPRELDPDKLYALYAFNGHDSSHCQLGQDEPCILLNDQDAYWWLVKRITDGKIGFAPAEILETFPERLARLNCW
# Assay: SPOT array
# Details: median of control spots 956
row,Binder,SPOT intensity
1,PSPSSSPPPIPKTAN,0
2,VPPVPLPFGIPPFPM,2
3,LPPPPPPPPPPPLPQ,0

# Target: T6, Bzz1-1, P38822
# T6 sequence (P38822 478-572, looked up): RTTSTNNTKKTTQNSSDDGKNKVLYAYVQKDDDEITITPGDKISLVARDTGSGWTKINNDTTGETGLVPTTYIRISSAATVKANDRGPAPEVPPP
# Assay: SPOT array
# Details: median of control spots 4446
row,Binder,SPOT intensity
1,PSPSSSPPPIPKTAN,1
2,VPPVPLPFGIPPFPM,2
3,LPPPPPPPPPPPLPQ,3

# Target: T7, Bzz1-2, P38822
# T7 sequence (P38822 568-633, looked up): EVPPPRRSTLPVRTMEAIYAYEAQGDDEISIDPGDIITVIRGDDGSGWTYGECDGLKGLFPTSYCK
# Assay: SPOT array
# Details: median of control spots 4538
row,Binder,SPOT intensity
1,PSPSSSPPPIPKTAN,3
2,VPPVPLPFGIPPFPM,0
3,LPPPPPPPPPPPLPQ,0

# Target: T8, Cdc25, P04821
# T8 sequence (P04821 50-136, looked up): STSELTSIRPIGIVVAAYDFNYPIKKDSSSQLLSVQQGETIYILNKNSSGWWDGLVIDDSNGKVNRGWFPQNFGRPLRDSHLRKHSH
# Assay: SPOT array
# Details: median of control spots 969
row,Binder,SPOT intensity
1,PSPSSSPPPIPKTAN,1
2,VPPVPLPFGIPPFPM,8
3,LPPPPPPPPPPPLPQ,1

# Target: T9, Cyk3, Q07533
# T9 sequence (Q07533 1-83, looked up): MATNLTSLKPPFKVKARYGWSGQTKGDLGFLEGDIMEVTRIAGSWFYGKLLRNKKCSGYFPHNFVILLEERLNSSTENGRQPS
# Assay: SPOT array
# Details: median of control spots 1451
row,Binder,SPOT intensity
1,PSPSSSPPPIPKTAN,0
2,VPPVPLPFGIPPFPM,2
3,LPPPPPPPPPPPLPQ,1

# Target: T10, Fus1, P11710
# T10 sequence (P11710 432-512, looked up): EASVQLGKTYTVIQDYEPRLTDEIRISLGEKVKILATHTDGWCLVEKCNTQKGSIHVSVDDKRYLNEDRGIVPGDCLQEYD
# Assay: SPOT array
# Details: median of control spots 1200
row,Binder,SPOT intensity
1,PSPSSSPPPIPKTAN,0
2,VPPVPLPFGIPPFPM,0
3,LPPPPPPPPPPPLPQ,0

# Target: GST
# Assay: SPOT array
# Details: median of control spots 978
row,Binder,SPOT intensity
1,PSPSSSPPPIPKTAN,1
2,VPPVPLPFGIPPFPM,0
3,LPPPPPPPPPPPLPQ,0

# Target: T11, Hof1, Q05080
# T11 sequence (Q05080 590-669, looked up): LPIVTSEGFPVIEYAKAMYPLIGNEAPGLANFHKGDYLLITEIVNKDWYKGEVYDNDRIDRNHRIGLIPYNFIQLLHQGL
# Assay: SPOT array
# Details: median of control spots 4086
row,Binder,SPOT intensity
1,PSPSSSPPPIPKTAN,0
2,VPPVPLPFGIPPFPM,84
3,LPPPPPPPPPPPLPQ,1

# Target: T12, Hse1, P38753
# T12 sequence (P38753 208-285, looked up): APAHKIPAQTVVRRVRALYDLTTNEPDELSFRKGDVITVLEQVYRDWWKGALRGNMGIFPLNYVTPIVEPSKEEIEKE
# Assay: SPOT array
# Details: median of control spots 1727
row,Binder,SPOT intensity
1,PSPSSSPPPIPKTAN,0
2,VPPVPLPFGIPPFPM,0
3,LPPPPPPPPPPPLPQ,0

# Target: T13, Lsb1, P53281
# T13 sequence (P53281 45-122, looked up): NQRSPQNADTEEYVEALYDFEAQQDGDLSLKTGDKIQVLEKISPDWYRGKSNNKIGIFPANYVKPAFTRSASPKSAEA
# Assay: SPOT array
# Details: median of control spots 388
row,Binder,SPOT intensity
1,PSPSSSPPPIPKTAN,0
2,VPPVPLPFGIPPFPM,6
3,LPPPPPPPPPPPLPQ,0

# Target: T14, Lsb3, P43603
# T14 sequence (P43603 385-451, looked up): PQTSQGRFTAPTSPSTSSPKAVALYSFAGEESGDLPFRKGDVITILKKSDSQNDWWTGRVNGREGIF
# Assay: SPOT array
# Details: median of control spots 406
row,Binder,SPOT intensity
1,PSPSSSPPPIPKTAN,0
2,VPPVPLPFGIPPFPM,4
3,LPPPPPPPPPPPLPQ,0

# Target: T15, Lsb4, P32793
# T15 sequence (P32793 402-468, looked up): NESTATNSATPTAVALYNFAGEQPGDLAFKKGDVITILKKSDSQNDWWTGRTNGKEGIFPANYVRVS
# Assay: SPOT array
# Details: median of control spots 397
row,Binder,SPOT intensity
1,PSPSSSPPPIPKTAN,0
2,VPPVPLPFGIPPFPM,16
3,LPPPPPPPPPPPLPQ,0

# Target: Myo3, P36006
# Assay: SPOT array
# Details: median of control spots 468
row,Binder,SPOT intensity
1,PSPSSSPPPIPKTAN,413
2,VPPVPLPFGIPPFPM,341
3,LPPPPPPPPPPPLPQ,230

# Target: T16, Myo5, Q04439
# T16 sequence (Q04439 1072-1160, looked up): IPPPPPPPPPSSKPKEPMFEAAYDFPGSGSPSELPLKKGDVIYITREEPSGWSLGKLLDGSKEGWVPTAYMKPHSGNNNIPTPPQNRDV
# Assay: SPOT array
# Details: median of control spots 471
row,Binder,SPOT intensity
1,PSPSSSPPPIPKTAN,300
2,VPPVPLPFGIPPFPM,207
3,LPPPPPPPPPPPLPQ,325

# Target: T17, Nbp2, Q12163
# T17 sequence (Q12163 103-180, looked up): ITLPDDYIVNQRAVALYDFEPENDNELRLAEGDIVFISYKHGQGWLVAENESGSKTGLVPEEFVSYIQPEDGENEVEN
# Assay: SPOT array
# Details: median of control spots 357
row,Binder,SPOT intensity
1,PSPSSSPPPIPKTAN,0
2,VPPVPLPFGIPPFPM,1
3,LPPPPPPPPPPPLPQ,0

# Target: T18, Pex13, P80667
# T18 sequence (P80667 295-386, looked up): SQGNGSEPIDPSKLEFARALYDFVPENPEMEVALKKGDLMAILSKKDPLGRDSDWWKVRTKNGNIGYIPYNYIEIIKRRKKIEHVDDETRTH
# Assay: SPOT array
# Details: median of control spots 1341
row,Binder,SPOT intensity
1,PSPSSSPPPIPKTAN,0
2,VPPVPLPFGIPPFPM,129
3,LPPPPPPPPPPPLPQ,3

# Target: T19, Pin3, Q06449
# T19 sequence (Q06449 53-122, looked up): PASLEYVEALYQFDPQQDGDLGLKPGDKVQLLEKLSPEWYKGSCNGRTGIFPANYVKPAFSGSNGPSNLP
# Assay: SPOT array
# Details: median of control spots 2171
row,Binder,SPOT intensity
1,PSPSSSPPPIPKTAN,0
2,VPPVPLPFGIPPFPM,63
3,LPPPPPPPPPPPLPQ,0

# Target: Rvs167, P39743
# Assay: SPOT array
# Details: median of control spots 2707
# Chain of Rvs167, P39743 (P39743 419-482): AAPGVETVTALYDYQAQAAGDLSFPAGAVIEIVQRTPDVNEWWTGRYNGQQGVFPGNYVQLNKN
row,Binder,SPOT intensity
1,PSPSSSPPPIPKTAN,0
2,VPPVPLPFGIPPFPM,0
3,LPPPPPPPPPPPLPQ,0

# Target: Sho1, P40073
# Assay: SPOT array
# Details: median of control spots 1148
# Chain of Sho1, P40073 (P40073 287-367): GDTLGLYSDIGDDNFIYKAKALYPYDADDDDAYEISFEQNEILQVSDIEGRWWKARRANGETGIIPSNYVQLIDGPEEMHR
row,Binder,SPOT intensity
1,PSPSSSPPPIPKTAN,0
2,VPPVPLPFGIPPFPM,6
3,LPPPPPPPPPPPLPQ,0

# Target: T20, Sla1-2, P32790
# T20 sequence (P32790 60-140, looked up): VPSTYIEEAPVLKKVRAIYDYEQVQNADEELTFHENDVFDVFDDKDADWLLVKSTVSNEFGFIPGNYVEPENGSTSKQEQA
# Assay: SPOT array
# Details: median of control spots 712
row,Binder,SPOT intensity
1,PSPSSSPPPIPKTAN,0
2,VPPVPLPFGIPPFPM,1
3,LPPPPPPPPPPPLPQ,0

# Target: T21, Sla1-3, P32790
# T21 sequence (P32790 344-424, looked up): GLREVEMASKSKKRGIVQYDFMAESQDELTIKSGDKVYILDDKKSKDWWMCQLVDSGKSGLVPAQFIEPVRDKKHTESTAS
# Assay: SPOT array
# Details: median of control spots 5475
row,Binder,SPOT intensity
1,PSPSSSPPPIPKTAN,0
2,VPPVPLPFGIPPFPM,0
3,LPPPPPPPPPPPLPQ,4
